This assay concerns the target full-length human TRPC3 (human) (UniProt Q13507). Nature of the assay: cryo-EM structure; purified TRPC3 at 5 mg/mL in 20 mM Tris 8.0, 500 mM NaCl, 1 mM EDTA, 0.1% digitonin; single-particle reconstruction with C4 symmetry, 3.3 Å.

Take “full-length human TRPC3 (from UniProt Q13507 1-921) (natural protein)”: the stoichiometry N amounted to 4.

The stoichiometry N is the number of molecules, sites or subunits per partner or assembly.
